According to patent publication US6482925:
Where two headings read alike, the source gives them in different places.

Columns and labels:
[1] = biological target: MHC class II molecules on Daudi B cells; assay: 51Cr Daudi cell adhesion to transfected Cos-7 cells; cpm relative to wild-type, background not subtracted
[2] = biological target: MHC class II molecules on Daudi B cells; assay: 51Cr Daudi cell adhesion; wild-type expression titrated by DNA quantity
[3] = biological target: MHC class II molecules on Daudi B cells; assay: 51Cr Daudi cell adhesion to transfected Cos-7 cells
[4] = biological target: MHC class II molecules on Daudi B cells; assay: as above; remark: listed apart in the source

Molecule | Adhesion (relative to wild-type LAG-3) [1] | reduction of bound cpm against wild-type LAG-3 at comparable expression [2] | fold reduction of binding against wild-type LAG-3 [3] | fold reduction of binding against wild-type LAG-3 [4] | fold increase of binding against wild-type LAG-3 [4]
LAG-3 deletion mutant (D2), deletion of domain D2 (from UniProt P18627 23-492) (receptor) | 0.11 | 40% | – | – | –
LAG-3 deletion mutant (54/66), deletion of the tip of the external loop (from UniProt P18627 23-492) (receptor) | 0.08 | 40% | – | – | –
LAG-3 mutant H56A (receptor) LQPGAEVPVVWAQEGAPAQLPCSPTIPLQDLSLLRRAGVTWQHQPDSGPPAAAPGAPLAPGPHPAAPSSWGPRPRRYTVLSVGPGGLRSGRLPLQPRVQLDERGRQRGDFSLWLRPARRADAGEYRAAVHLRDRALSCRLRLRLGQASMTASPPGSLRASDWVILNCSFSRPDRPASVHWFRNRGQGRVPVRESPHHHLAESFLFLPQVSPMDSGPWGCILTYRDGFNVSIMYNLTVLGLEPPTPLTVYAGAGSRVGLPCRLPAGVGTRSFLTAKWTPPGGGPDLLVTGDNGDFTLRLEDVSQAQAGTYTCHIHLQEQQLNATVTLAIITVTPKSFGSPGSLGKLLCEVTPVSGQERFVWSSLDTPSQRSFSGPWLEAQEAQLLSQPWQCQLYQGERLLGAAVYFTELSSPGAQRSGRAPGALPAGHLLLFLTLGVLSLLLLVTGAFGFHLWRRQWRPRRFSALEQGIHPRRLRAR | 0.45 | 40% | > 2 fold | 2 fold | –
LAG-3 mutant D30A (receptor) LQPGAEVPVVWAQEGAPAQLPCSPTIPLQALSLLRRAGVTWQHQPDSGPPAAAPGHPLAPGPHPAAPSSWGPRPRRYTVLSVGPGGLRSGRLPLQPRVQLDERGRQRGDFSLWLRPARRADAGEYRAAVHLRDRALSCRLRLRLGQASMTASPPGSLRASDWVILNCSFSRPDRPASVHWFRNRGQGRVPVRESPHHHLAESFLFLPQVSPMDSGPWGCILTYRDGFNVSIMYNLTVLGLEPPTPLTVYAGAGSRVGLPCRLPAGVGTRSFLTAKWTPPGGGPDLLVTGDNGDFTLRLEDVSQAQAGTYTCHIHLQEQQLNATVTLAIITVTPKSFGSPGSLGKLLCEVTPVSGQERFVWSSLDTPSQRSFSGPWLEAQEAQLLSQPWQCQLYQGERLLGAAVYFTELSSPGAQRSGRAPGALPAGHLLLFLTLGVLSLLLLVTGAFGFHLWRRQWRPRRFSALEQGIHPRRLRAR | 0.41 | 40% | – | 2 fold | –
LAG-3 mutant R73E (receptor) LQPGAEVPVVWAQEGAPAQLPCSPTIPLQDLSLLRRAGVTWQHQPDSGPPAAAPGHPLAPGPHPAAPSSWGPEPRRYTVLSVGPGGLRSGRLPLQPRVQLDERGRQRGDFSLWLRPARRADAGEYRAAVHLRDRALSCRLRLRLGQASMTASPPGSLRASDWVILNCSFSRPDRPASVHWFRNRGQGRVPVRESPHHHLAESFLFLPQVSPMDSGPWGCILTYRDGFNVSIMYNLTVLGLEPPTPLTVYAGAGSRVGLPCRLPAGVGTRSFLTAKWTPPGGGPDLLVTGDNGDFTLRLEDVSQAQAGTYTCHIHLQEQQLNATVTLAIITVTPKSFGSPGSLGKLLCEVTPVSGQERFVWSSLDTPSQRSFSGPWLEAQEAQLLSQPWQCQLYQGERLLGAAVYFTELSSPGAQRSGRAPGALPAGHLLLFLTLGVLSLLLLVTGAFGFHLWRRQWRPRRFSALEQGIHPRRLRAR | 3.25 | – | – | – | > 3 fold
LAG-3 mutant R75A (receptor) LQPGAEVPVVWAQEGAPAQLPCSPTIPLQDLSLLRRAGVTWQHQPDSGPPAAAPGHPLAPGPHPAAPSSWGPRPARYTVLSVGPGGLRSGRLPLQPRVQLDERGRQRGDFSLWLRPARRADAGEYRAAVHLRDRALSCRLRLRLGQASMTASPPGSLRASDWVILNCSFSRPDRPASVHWFRNRGQGRVPVRESPHHHLAESFLFLPQVSPMDSGPWGCILTYRDGFNVSIMYNLTVLGLEPPTPLTVYAGAGSRVGLPCRLPAGVGTRSFLTAKWTPPGGGPDLLVTGDNGDFTLRLEDVSQAQAGTYTCHIHLQEQQLNATVTLAIITVTPKSFGSPGSLGKLLCEVTPVSGQERFVWSSLDTPSQRSFSGPWLEAQEAQLLSQPWQCQLYQGERLLGAAVYFTELSSPGAQRSGRAPGALPAGHLLLFLTLGVLSLLLLVTGAFGFHLWRRQWRPRRFSALEQGIHPRRLRAR | 4.2 | – | – | – | > 3 fold
LAG-3 mutant Y77F (receptor) LQPGAEVPVVWAQEGAPAQLPCSPTIPLQDLSLLRRAGVTWQHQPDSGPPAAAPGHPLAPGPHPAAPSSWGPRPRRFTVLSVGPGGLRSGRLPLQPRVQLDERGRQRGDFSLWLRPARRADAGEYRAAVHLRDRALSCRLRLRLGQASMTASPPGSLRASDWVILNCSFSRPDRPASVHWFRNRGQGRVPVRESPHHHLAESFLFLPQVSPMDSGPWGCILTYRDGFNVSIMYNLTVLGLEPPTPLTVYAGAGSRVGLPCRLPAGVGTRSFLTAKWTPPGGGPDLLVTGDNGDFTLRLEDVSQAQAGTYTCHIHLQEQQLNATVTLAIITVTPKSFGSPGSLGKLLCEVTPVSGQERFVWSSLDTPSQRSFSGPWLEAQEAQLLSQPWQCQLYQGERLLGAAVYFTELSSPGAQRSGRAPGALPAGHLLLFLTLGVLSLLLLVTGAFGFHLWRRQWRPRRFSALEQGIHPRRLRAR | 0.05 | 40% | – | – | –
LAG-3 mutant R103A (receptor) LQPGAEVPVVWAQEGAPAQLPCSPTIPLQDLSLLRRAGVTWQHQPDSGPPAAAPGHPLAPGPHPAAPSSWGPRPRRYTVLSVGPGGLRSGRLPLQPRVQLDEAGRQRGDFSLWLRPARRADAGEYRAAVHLRDRALSCRLRLRLGQASMTASPPGSLRASDWVILNCSFSRPDRPASVHWFRNRGQGRVPVRESPHHHLAESFLFLPQVSPMDSGPWGCILTYRDGFNVSIMYNLTVLGLEPPTPLTVYAGAGSRVGLPCRLPAGVGTRSFLTAKWTPPGGGPDLLVTGDNGDFTLRLEDVSQAQAGTYTCHIHLQEQQLNATVTLAIITVTPKSFGSPGSLGKLLCEVTPVSGQERFVWSSLDTPSQRSFSGPWLEAQEAQLLSQPWQCQLYQGERLLGAAVYFTELSSPGAQRSGRAPGALPAGHLLLFLTLGVLSLLLLVTGAFGFHLWRRQWRPRRFSALEQGIHPRRLRAR | 0.49 | – | – | 2 fold | –
LAG-3 mutant R115A (receptor) LQPGAEVPVVWAQEGAPAQLPCSPTIPLQDLSLLRRAGVTWQHQPDSGPPAAAPGHPLAPGPHPAAPSSWGPRPRRYTVLSVGPGGLRSGRLPLQPRVQLDERGRQRGDFSLWLAPARRADAGEYRAAVHLRDRALSCRLRLRLGQASMTASPPGSLRASDWVILNCSFSRPDRPASVHWFRNRGQGRVPVRESPHHHLAESFLFLPQVSPMDSGPWGCILTYRDGFNVSIMYNLTVLGLEPPTPLTVYAGAGSRVGLPCRLPAGVGTRSFLTAKWTPPGGGPDLLVTGDNGDFTLRLEDVSQAQAGTYTCHIHLQEQQLNATVTLAIITVTPKSFGSPGSLGKLLCEVTPVSGQERFVWSSLDTPSQRSFSGPWLEAQEAQLLSQPWQCQLYQGERLLGAAVYFTELSSPGAQRSGRAPGALPAGHLLLFLTLGVLSLLLLVTGAFGFHLWRRQWRPRRFSALEQGIHPRRLRAR | 0.23 | 40% | – | – | –
